The values below come from PMC2728795.

The assay concerns the target F-actin (freshly polymerized actin) (UniProt P68135). Nature of the assay: co-sedimentation.

The substance “GST(541–605,Δ25)PRG (from UniProt O15085 541-605) (domain or fragment)” showed a percent bound at 5 µM F-actin of 10%.
